Laboratory results from PMC8177701 (Science Advances, 2021).

Target: T1, RsmA (E. coli, UniProt P06992 1-273)
T1 sequence (looked up): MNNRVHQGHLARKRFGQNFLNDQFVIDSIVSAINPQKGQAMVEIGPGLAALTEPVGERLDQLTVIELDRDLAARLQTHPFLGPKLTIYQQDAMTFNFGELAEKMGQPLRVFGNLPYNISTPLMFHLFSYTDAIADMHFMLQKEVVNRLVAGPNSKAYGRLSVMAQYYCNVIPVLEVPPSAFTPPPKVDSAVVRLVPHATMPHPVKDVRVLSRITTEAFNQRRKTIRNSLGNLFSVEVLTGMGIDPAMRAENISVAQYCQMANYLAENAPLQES
Test: NMR titration

Ka: < 10000 M⁻¹
B1: RimP (natural protein)
chain: not shown
